Assay results as given in patent US20230357429A1 (JANUX THERAPEUTICS, published 2023).
Where no end group is shown, it is not given here.

T1: Human TROP2 ECD (31-274 AA), biotinylated (human, UniProt P09758 31-274, biotinylated (site not stated))
T1 construct: also called tumor-associated calcium signal transducer 2; Human TROP2-biotin
T1 sequence: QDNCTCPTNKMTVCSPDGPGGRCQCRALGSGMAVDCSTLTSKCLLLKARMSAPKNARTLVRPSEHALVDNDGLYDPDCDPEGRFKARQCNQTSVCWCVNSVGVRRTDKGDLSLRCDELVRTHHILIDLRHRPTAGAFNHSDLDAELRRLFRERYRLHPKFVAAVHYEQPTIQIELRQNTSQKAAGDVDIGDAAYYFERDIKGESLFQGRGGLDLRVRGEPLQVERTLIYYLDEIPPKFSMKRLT


Assays:
[1] = biological target: T1, Human TROP2 ECD (31-274 AA), …; experiment: ELISA, ratio of EC50 to that of TBD-1 wt
[2] = biological target: T1, Human TROP2 ECD (31-274 AA), …; experiment: BLI (Octet), dissociation half-life from biotinylated human TROP2 ECD
[3] = biological target: T1, Human TROP2 ECD (31-274 AA), …; experiment: ELISA, biotinylated TROP2 ECD on neutravidin plate, Fab titrated
[4] = biological target: T1, Human TROP2 ECD (31-274 AA), …; experiment: ELISA: biotinylated TROP2 captured on neutravidin plate, Fab titrated, HRP secondary antibody
[5] = biological target: T1, Human TROP2 ECD (31-274 AA), …; experiment: BLI (Octet), biotinylated human TROP2 ECD on SAX sensor, Fab 6.25-50 nM
[6] = biological target: T1, Human TROP2 ECD (31-274 AA), …; experiment: ELISA on immobilized TROP2
[7] = biological target: T1, Human TROP2 ECD (31-274 AA), …; experiment: ELISA on immobilized TROP2; remark: listed apart in the source
[8] = biological target: T2, TCE-10 (anti-CD3 scFv R100A; anti-TROP2 wt); experiment: competition ELISA, TCE on captured CD3
T2 construct: scFv on the Fab heavy chain; also called TCE-10 (R100A)

[9] = biological target: T3, TCE-13 (anti-CD3 scFv N103A; anti-TROP2 wt); experiment: competition ELISA, TCE on captured CD3
T3 construct: scFv on the Fab heavy chain; also called TCE-13 (N103A)

[10] = biological target: T4, TCE-14 (anti-CD3 scFv F104A; anti-TROP2 wt); experiment: competition ELISA, TCE on captured CD3
T4 construct: scFv on the Fab heavy chain; also called TCE-14 (F104A)

[11] = biological target: T5, TCE-11 (anti-CD3 scFv H101A; anti-TROP2 wt); experiment: competition ELISA, TCE on captured CD3
T5 construct: scFv on the Fab heavy chain; also called TCE-11 (H101A)

[12] = biological target: T6, TCE-20 (anti-CD3 scFv S110A; anti-TROP2 wt); experiment: competition ELISA, TCE on captured CD3
T6 construct: scFv on the Fab heavy chain; also called TCE-20 (S110A)

[13] = biological target: T7, TCE-1 (anti-CD3 scFv wt; anti-TROP2 Fab wt); experiment: competition ELISA: peptide titrated and pre-incubated with a constant concentration of TCE-1, binding of TCE-1 to plate-bound biotinylated CD3 detected
T7 construct: anti-CD3 scFv fused to the N-terminus of the anti-TROP2 Fab heavy chain; also called TCE-1 (wt)

[14] = biological target: T8, TCE-33 (anti-CD3 scFv F240A; anti-TROP2 wt); experiment: competition ELISA, TCE on captured CD3
T8 construct: scFv on the Fab heavy chain; also called TCE-33 (F240A)

[15] = biological target: T9, TCE-31 (anti-CD3 scFv W238A; anti-TROP2 wt); experiment: competition ELISA, TCE on captured CD3
T9 construct: scFv on the Fab heavy chain; also called TCE-31 (W238A)

Binder | Fold shift in EC50 relative to wt [1] [fold] | t1/2 [2] [min] | EC50 [3] [nM] | EC50 [4] [nM] | Kd [5] [nM] | EC50 [6] [nM] | also measured
TBD-2 (anti-TROP2 Fab, LC Q89A) (Fab, V domains shown) VH: QVQLQQSGSELKKPGASVKVSCKASGYTFTNYGMNWVKQAPGQGLKWMGWINTYTGEPTYTDDFKGRFAFSLDTSVSTAYLQISSLKADDTAVYFCARGGFGSSYWYFDVWGQGSLVTVSS VL: DIQLTQSPSSLSASVGDRVSITCKASQDVSIAVAWYQQKPGKAPKLLIYSASYRYTGVPDRFSGSGSGTDFTLTISSLQPEDFAVYYCAQHYITPLTFGAGTKVEIKR | 23.5 | 24 | 4.7 | 4.71 | 10.4 |  | 
TBD-10 (anti-TROP2 Fab, LC T97A) (Fab, V domains shown) VH: QVQLQQSGSELKKPGASVKVSCKASGYTFTNYGMNWVKQAPGQGLKWMGWINTYTGEPTYTDDFKGRFAFSLDTSVSTAYLQISSLKADDTAVYFCARGGFGSSYWYFDVWGQGSLVTVSS VL: DIQLTQSPSSLSASVGDRVSITCKASQDVSIAVAWYQQKPGKAPKLLIYSASYRYTGVPDRFSGSGSGTDFTLTISSLQPEDFAVYYCQQHYITPLAFGAGTKVEIKR | 1.5 | 37 | 0.3 | 0.29 | 0.6 |  | 
TBD-8 (anti-TROP2 Fab, LC P95A) (Fab, V domains shown) VH: QVQLQQSGSELKKPGASVKVSCKASGYTFTNYGMNWVKQAPGQGLKWMGWINTYTGEPTYTDDFKGRFAFSLDTSVSTAYLQISSLKADDTAVYFCARGGFGSSYWYFDVWGQGSLVTVSS VL: DIQLTQSPSSLSASVGDRVSITCKASQDVSIAVAWYQQKPGKAPKLLIYSASYRYTGVPDRFSGSGSGTDFTLTISSLQPEDFAVYYCQQHYITALTFGAGTKVEIKR | 1 | 61 | 0.2 | 0.2 | 0.3 |  | 
TBD-7 (anti-TROP2 Fab, LC T94A) (Fab, V domains shown) VH: QVQLQQSGSELKKPGASVKVSCKASGYTFTNYGMNWVKQAPGQGLKWMGWINTYTGEPTYTDDFKGRFAFSLDTSVSTAYLQISSLKADDTAVYFCARGGFGSSYWYFDVWGQGSLVTVSS VL: DIQLTQSPSSLSASVGDRVSITCKASQDVSIAVAWYQQKPGKAPKLLIYSASYRYTGVPDRFSGSGSGTDFTLTISSLQPEDFAVYYCQQHYIAPLTFGAGTKVEIKR | 1 | 39 | 0.2 | 0.22 | 0.6 |  | 
TBD-6 (anti-TROP2 Fab, LC I93A) (Fab, V domains shown, also called TBD-6 (LC I93A mutant)) VH: QVQLQQSGSELKKPGASVKVSCKASGYTFTNYGMNWVKQAPGQGLKWMGWINTYTGEPTYTDDFKGRFAFSLDTSVSTAYLQISSLKADDTAVYFCARGGFGSSYWYFDVWGQGSLVTVSS VL: DIQLTQSPSSLSASVGDRVSITCKASQDVSIAVAWYQQKPGKAPKLLIYSASYRYTGVPDRFSGSGSGTDFTLTISSLQPEDFAVYYCQQHYATPLTFGAGTKVEIKR | 1.5 | 28 | 0.3 | 0.29 | 0.7 |  | 
PC-15 (bispecific antibody, anti-TROP2 F108A) light: not shown heavy: GGVDFCGLYHWPICYQGGGGSGGLSGRSDAGSPLGLAGSGGSQVQLQQSGSELKKPGASVKVSCKASGYTFTNYGMNWVKQAPGQGLKWMGWINTYTGEPTYTDDFKGRFAFSLDTSVSTAYLQISSLKADDTAVYFCARGGFGSSYWYADVWGQGSLVTVSSASTKGPSVFPLAPSSKSTSGGTAALGCLVKDYFPEPVTVSWNSGALTSGVHTFPAVLQSSGLYSLSSVVTVPSSSLGTQTYICNVNHKPSNTKVDKKVEPKSC |  |  |  |  |  | 363 | 
PC-12 (bispecific antibody, anti-TROP2 R98A) light: GGVDFCGLYHWPICYQGGGGSGGLSGRSDAGSPLGLAGSGGSDIQLTQSPSSLSASVGDRVSITCKASQDVSIAVAWYQQKPGKAPKLLIYSASYRYTGVPDRFSGSGSGTDFTLTISSLQPEDFAVYYCQQHYITPLTFGAGTKVEIKRTVAAPSVFIFPPSDEQLKSGTASVVCLLNNFYPREAKVQWKVDNALQSGNSQESVTEQDSKDSTYSLSSTLTLSKADYEKHKVYACEVTHQGLSSPVTKSFNRGEC heavy: not shown |  |  |  |  |  | 352 | 
PC-14 (bispecific antibody, anti-TROP2 F108A) light: GGVDFCGLYHWPICYQGGGGSGGLSGRSDAGSPLGLAGSGGSDIQLTQSPSSLSASVGDRVSITCKASQDVSIAVAWYQQKPGKAPKLLIYSASYRYTGVPDRFSGSGSGTDFTLTISSLQPEDFAVYYCQQHYITPLTFGAGTKVEIKRTVAAPSVFIFPPSDEQLKSGTASVVCLLNNFYPREAKVQWKVDNALQSGNSQESVTEQDSKDSTYSLSSTLTLSKADYEKHKVYACEVTHQGLSSPVTKSFNRGEC heavy: not shown |  |  |  |  |  | 333 | 
GSQCLGPEWEVCPY (cysteine pairing not given here; also: biotinylated, site not given here, mask peptide for the CD3 scFv) [Peptide-66] |  |  |  |  |  |  | IC50 [8]: 13000 nM; IC50 [9]: 21400 nM; IC50 [10]: 7090 nM; IC50 [11]: 2620 nM; IC50 [12]: 721000 nM; binding result [13]: binds; IC50 [14]: 3710 nM; IC50 [15]: 51500 nM
GSACLGPEWEVCPY (cysteine pairing not given here; also: biotinylated, site not given here, mask peptide for the CD3 scFv) [Peptide-75] |  |  |  |  |  |  | IC50 [8]: 4740 nM; IC50 [9]: 47700 nM; IC50 [10]: 4210 nM; IC50 [11]: 2080 nM; IC50 [12]: 120000 nM; binding result [13]: binds; IC50 [14]: 7460 nM

Continued, in another order:

Fold shift in EC50 relative to wt [1] [fold] | t1/2 [2] [min] | EC50 [3] [nM] | EC50 [4] [nM] | Kd [5] [nM] | EC50 [6] [nM] | Binder | also measured
84 | 5 | 16.8 | 16.8 | 8.4 |  | TBD-9 (anti-TROP2 Fab, LC L96A) (Fab, V domains shown) VH: QVQLQQSGSELKKPGASVKVSCKASGYTFTNYGMNWVKQAPGQGLKWMGWINTYTGEPTYTDDFKGRFAFSLDTSVSTAYLQISSLKADDTAVYFCARGGFGSSYWYFDVWGQGSLVTVSS VL: DIQLTQSPSSLSASVGDRVSITCKASQDVSIAVAWYQQKPGKAPKLLIYSASYRYTGVPDRFSGSGSGTDFTLTISSLQPEDFAVYYCQQHYITPATFGAGTKVEIKR | 
1.5 | 27 | 0.3 | 0.27 | 0.7 |  | TBD-3 (anti-TROP2 Fab, LC Q90A) (Fab, V domains shown) VH: QVQLQQSGSELKKPGASVKVSCKASGYTFTNYGMNWVKQAPGQGLKWMGWINTYTGEPTYTDDFKGRFAFSLDTSVSTAYLQISSLKADDTAVYFCARGGFGSSYWYFDVWGQGSLVTVSS VL: DIQLTQSPSSLSASVGDRVSITCKASQDVSIAVAWYQQKPGKAPKLLIYSASYRYTGVPDRFSGSGSGTDFTLTISSLQPEDFAVYYCQAHYITPLTFGAGTKVEIKR | 
 |  |  |  |  | 0.46 | TCE-6 (bispecific antibody) light: DIQLTQSPSSLSASVGDRVSITCKASQDVSIAVAWYQQKPGKAPKLLIYSASYRYTGVPDRFSGSGSGTDFTLTISSLQPEDFAVYYCQQHYITPLTFGAGTKVEIKRTVAAPSVFIFPPSDEQLKSGTASVVCLLNNFYPREAKVQWKVDNALQSGNSQESVTEQDSKDSTYSLSSTLTLSKADYEKHKVYACEVTHQGLSSPVTKSFNRGEC heavy: not shown | EC50 [7]: 0.37 nM
 |  |  |  |  | 3.18 | TCE-3 (bispecific antibody) light: not shown heavy: QVQLQQSGSELKKPGASVKVSCKASGYTFTNYGMNWVKQAPGQGLKWMGWINTYTGEPTYTDDFKGRFAFSLDTSVSTAYLQISSLKADDTAVYFCAAGGFGSSYWYFDVWGQGSLVTVSSASTKGPSVFPLAPSSKSTSGGTAALGCLVKDYFPEPVTVSWNSGALTSGVHTFPAVLQSSGLYSLSSVVTVPSSSLGTQTYICNVNHKPSNTKVDKKVEPKSC | 
